{"source": "the DeepSol protein solubility set", "data": [{"assay": "soluble on expression in E. coli; label from the status in PepcDB or PDB records", "values": [{"sequence": "MAHHHHHHMVENKSKVKDISLAPFGKMQMEISENEMPGLMRIREEYGKDQPLKNAKITGCLHMTVECALLIETLQKLGAQIRWCSCNIYSTADYAAAAVSTLENVTVFAWKNETLEEYWWCVESALTWGDGDDNGPDMIVDDGGDATLLVHKGVEYEKLYEEKNILPDPEKAKNEEERCFLTLLKNSILKNPKKWTNIAKKIIGVSEETTTGVLRLKKMDKQNELLFTAINVNDAVTKQKYDNVYGCRHSLPDGLMRATDFLISGKIVVICGYGDVGKGCASSMKGLGARVYITEIDPICAIQAVMEGFNVVTLDEIVDKGDFFITCTGNVDVIKLEHLLKMKNNAVVGNIGHFDDEIQVNELFNYKGIHIENVKPQVDRITLPNGNKIIVLARGRLLNLGCATGHPAFVMSFSFCNQTFAQLDLWQNKDTNKYENKVYLLPKHLDEKVALYHLKKLNASLTELDDNQCQFLGVNKSGPFKSNEYRY", "soluble on expression in E. coli": "soluble"}, {"sequence": "MAHHHHHHMVFDVNGDFVENEQQFIEAARKSINLTIKLQNTSGMSELIARVLEDDDRRASGAISTSALDFDELLRTTPRFNFLSGDHPIFRRYNKRLAQQRQAAALIAQRTAEAELQRQAEIKERLRKALEEEAAVQKKKEQEKAELQRMRAAQEPARFVPEEPFLKIIKDESSFGQVERELKKPETAAEPKVESKAEGAASEAITNTATGTSTTLSNDVAATISAEELLVLVGVPTETMETTTPALEDLAEAIALPSSENTATYVALPAEEYTLCSGERVVSVIKKRSGPIPAPPPGTPPVINKAAASRLSEPVKRVKPVEKMVRNCTPSNEQPYKSRHRSRSPRSRRRSERDHSSKECSRRHRRDEPSSHRHHKNSRDSKHRR", "soluble on expression in E. coli": "not soluble"}, {"sequence": "MAHHHHHHMVHKKQAWAKRVKKERFKKKFLTRMQATRLLQMESVQFRRLCILKGIYPRALNRSKQKQSGNEKQYYLAREIKWLVRDQIAEKMMAYRAWEKKVKRAEAMGRSEDLKVLQTSRVKPRHSLVATIKERYPYFIDAIRDVDDAMSMIHLYAFLSPEIKSDTTIEIHHSLTSGLSERAKEVCERWDRYVARARVLTKGFISIKGYYYEAIVKGERVRWLCPHEYAHRFPPGIQQYVMLSFLEFYLEMMKFVLFKLESDLARDEADRLAAEDEEGVTRANAEDFANGAALAVLDVGANQAQAKAVKEAESKRSLMEEELHKVRELFRGLTFFISREVPAKHFALVINACGGRVATDYVPSNITHVVVDRPALPPGMKKHDQLEYVQPQYIFDCLNARLVLPVTGYRIGEELPPHVSPFSVSITNSAEDNAAVVQVKKDHPRIVGYVPARVHEIRKLINPSYSAVDPEGKVAHLEDEYSDEESHVAVPEMDMEDDVSLSGDELAEARRKPAWQEEEVTEEVQRPKLSAFKVKKQREMNLMNAPTNEVVARRRQALRKAQEKSRQTETSEARLQRKMSEVKRQEAATRKMQLQVARKKAARFYKMVSGVVQGTAKKVATLEAKAKHIAEGKLRKTEDGKGLVNKRLEARRQRAEAKGKKLKERKAGNPYKKLPKWVQ", "soluble on expression in E. coli": "not soluble"}, {"sequence": "MAHHHHHHMVQVVHRHGERSALINDNKTEICGTLYPCGELTGERVKMVRAIGEFARSRYNDLSLVESPLCPSTQYNSSLVYTRPTHTQRTIQSATAFLHSLFQDDYFYPVAYSVNRTTDMLLSTDAVPSVVGRSWLDNQAVYPGLMEVNAAWFKYVFSWNHTSKLDLTQGSASQNLEQAMLANINAPPRLSPSYNMFHYSAHDTTVTPFAATFGDQGNTTMHPPFAVTSFVALLQDTADASGWYVRLIRSNPVKVASGTYVFRQTGIAVHCFDATGNRYRVSTGICPLDDFRRMVDHSRPAVADGHSAMTHAQYSNMGSPRTIADNKLVPLRCWIYRYACPSKSCPGSYILSAVDHQCYPQTDIPNSSSSEGTSSSDVSSFKKPANWMPRVSSPEKSRHIAADILRGVTNGVTVGAAVRKHDEYRRHC", "soluble on expression in E. coli": "not soluble"}, {"sequence": "MAHHHHHHMYGDKGPPKGYSVPRFDTNASKRCQTCSSTVHWTFECPLKNSATLSAKKSAATTVKLSPSQMLRYGIKQKSANFVSEPTEREVFDAELRELRSVLTAEVRQELKAKKSAAHKSGNDCKKHEAPLPSAAPKKEPPSDSVTMKTERTEEEE", "soluble on expression in E. coli": "soluble"}, {"sequence": "MAHHHHHHMYSFSPVTPGKTAASPANDLVSSSSNSNGELVDDIKESLDRIEKLLNRGQQLLYGDGAADGKKAYSEGAAVTPDGEPADADTVSIPTARHVDANCGSYQLPSDTHVGLPLRGTGTSAAANASLYPQSTSQHSASHFQRNSEKLYQRLSGESNHRYPSQNGSNRSSLHARPHANRASVGSNRLPPGFKDKVLVSVRGRRIVQIQKEGGIVPNFEEGLDAHDTPQNFTIEELKARIHRELEEYRRLGPLMNRYKSFRRRQCVTVAKRAPMMKIASRTFTAATTAALGSKLVKHIPAPASASTPQGAANRFGVHAAAATTKTGPHAAPASRQAAKSTNGTPARSTLRNSHERGRVETRRADRGSHPPMMAPPGNSTYSAYYNPLQMSGGSRNASCELSLKQTAGCSDVVPQHARNVSKSKPRTTEPQDDMEEASLPDSMEDCDASQPYVAPLDLSVIKK", "soluble on expression in E. coli": "not soluble"}, {"sequence": "MAHHHHHHSGTVTDDYLANNVDYASGFKGPLPMPPSKHIAIVACMDARLDVYRMLGIKEGEAHVIRNAGCVVTDDVIRSLAISQRLLGTREIILLHHTDCGMLTFTDDDFKRAIQDETGIRPTWSPESYPDAVEDVRQSLRRIEVNPFVTKHTSLRGFVFDVATGKLNEVTP", "soluble on expression in E. coli": "soluble"}, {"sequence": "MAHHHHHHSLIKSMTGFSRVEKVSGPYQFRVEMKSLNSKGLNIINQLPGYLSMKEIELNNLVQEYVSRGKVQTRVQVKFLEPPKVLEIDKNVVRAYYSMLDEIVGELSLPEPVKLSDLLNFREVFRIELSDEEIENIWNHLVPILREALEKLVEERKKEGQKIGADLKRILEDLSSRVEEIEKISDQLPALYREKIKEEVEKILPQDVSVKEDILENHVAFMATKADIREEITRLRSHIKRALELIESDEPVGMNLDFLGQEMLRELNTILSKSISGEITSLALEGKVLVSQFREQIQNVEEG", "soluble on expression in E. coli": "soluble"}, {"sequence": "MAHHHHHHSLKDKPLKLTVEKLVYGGYGFSRLNGKAVFVRFASPKELVEAKVVKEKKDYTEAVVTKVLISSPARRKAPCPYYGECGGCQIQHLNYEEQLRSKKDILLESLERIGKIKEVPYEGEIPSKKEFNYRVRVQFKIQENRVGFYRWDVKEVVDVEECLLAHERINELIPHIREVLKVIKDLQEVHVNYSPTRDEATLKFVTITHTDEKLLQNILENVLPEWVVGIGDYGKVGNSLVKRYKVGREHIFMDVGKWQYRVSNDSFFQVNYTLWEDFLKEVLDFSESYKKGLDLHCGVGFFTIPLSEQGNFIEGADANPSAIKDAEYNAKINNRDNVIFEEATAFKHLKRRIGEVINLVVVDPPRSGLLREERDLLLKNKPDKIVYISCNPTTFARDLKILTKGGYELKRLKLIDNFPQTYHIESIALLEVKDEG", "soluble on expression in E. coli": "soluble"}, {"sequence": "MAHHHHHHSLKILFVAAEGAPFAKTGGLGDVIGALPKSLVKNNNEVSVILPYYDVVDAKFGDQIEDLFYFFTNVGWRREYVGIKHIFRDGVDFYFIDNKHYFYRGQIYGEFDDGERFAYFQLAALEAMEKIQFIPDILHVHDYHTAMIPYLLKEKYHWINAYHGIKTVFTIHNIEFQGQFNPSMLGELFGVGDERYRDGTLRWNDCLNWMKAAVLYADRVTTVSPSYAKEIMTPEFGKGLDQIMRMESGKLSGVVNGIDTDLFDPETDPHLAVHFSKDDLSGKAKNKAALQERVGLPVREDVPLVGIVSRLTDQKGFQLVVDQLNTMMQLDLQIVLLGTGYADFENAFAWFGHAYPDKMSANITFDLELAQQIYAASDIFLMPSAFEPCGLSQMMAMRYGTLPLVHEVGGLRDTVIPYNEFEKTGTGFGFQDFSGYWLTKTLEAALDVYYNRKEDWKILQKNAMTTDFSWDTASQSYEHLYKELAEG", "soluble on expression in E. coli": "soluble"}, {"sequence": "MAHHHHHHSLSILVTRPSPAGEELVSRLRTLGQVAWHFPLIEFSPGQQLPQLADQLAALGESDLLFALSQHAVAFAQSQLHQQDRKWPRLPDYFAIGRTTALALHTVSGQKILYPQDREISEVLLQLPELQNIAGKRALILRGNGGRELIGDTLTARGAEVTFCECYQRCAIHYDGAEEAMRWQAREVTMVVVTSGEMLQQLWSLIPQWYREHWLLHCRLLVVSERLAKLARELGWQDIKVADNADNDALLRALQEG", "soluble on expression in E. coli": "soluble"}, {"sequence": "MAHIVQTHKLTLHDVAIDQALVYSSDSNCAELKRTFQVELAHGYNEVKVQNLPFDLVQDSIRVSGAGEAVIHDVSVKNQEGAEFVIPERVLAIKAIFEEKERAKDKVADSRVAVQKRIEGLDNLITEVAKHGKDGAFHFDGRTIESLNALHGFHQDTTVDLRAQIRTLDQDLRKAEEEYARASQDYDNTGYRWRNSAQYASIIVESEAGGAAQLTITYQVNNVSWTPFYDIRVTAGVEAEMHVTYFGKVRQYSGEDWKTVPLVLSTARPAHGVKQLPKLGALEASIVVPEPECNRGGRGGYGGGYAQDSVVMACAAPMMEMGRSRKSMKMSYAAVKSSNIASEFSIGRPATIDDRTDEYKVNIGQFTLDTKLSNVTVPSRNATAFLVANSVNTSDYPLVAGQASIFLDGAFVNKTEFEDAVVSQKFEVSLGVDPNIRIEYKPVRNYQEQSGTVEKINSQVTEKTTAVTNLRPNSVLLTIREQLPRSTDSRIKVHLNTPEAVEVDEASVEPTVGAAITPEKILDYTVQLAPGQSSTFVVKYTTEHPQAEQIRYEEKF", "soluble on expression in E. coli": "not soluble"}, {"sequence": "MAHKKSNRQLIDACRQNFLSHLRLREWRDVHSQLLTVVREHGWRLNEAEATYEQIHLALLTGLLGNLGMKADDDPHYLGARGIKFYLWPGSALAKKAGRWVMAAELVETSRLYARCLAKIEPEWIEKVGAHLLKKSLSEPLEHHHHHH", "soluble on expression in E. coli": "soluble"}, {"sequence": "MAHRTFRLCRLRIRRLRDHPLRQDGMVDYSTTATTNTLYLLHTGHHVPPPPSHRNPPFSFRSFRPPIQPCSPNSHHVDNVIILASAIK", "soluble on expression in E. coli": "not soluble"}, {"sequence": "MAIAYFIPDQAQLLARSYQQNGQQTAASPRTTATAAAPSQQQQQSQQQQQQQRHHHQQQRPQFRANISVPLGSQQGSMTMSEFGCWDLLAQIFCYALRIYSYSSSQRQPTVIQISFEISSGGQNNDEDDVTDATSKEN", "soluble on expression in E. coli": "not soluble"}, {"sequence": "MAIEHFSTLKQHLSSQIIGQEALVENLLIALLANGHLIVEGPPGLAKTRAVNALAQGLEADFHRIQFTPDLLPADLTGTDIYRPEDGTFVFQPGPLFQNLVLADEINRAPAKVQSALLEAMAEGQITVGRKTYDLPELFLVMATQNPIEQEGTYPLPEAQLDRFLMHIEIGYPDAESELAILKLNRGEALRSNANHGNDSSEKETSTKENSLRTLSQSEIFSAREQVLNIHMAPSLENYIVDLIIATRQPEKYDDKLSTWLAFGASPRATIALDRCARARAWLHNRDFVSPEDIQAVFHNALRHRILLSYQAEAEGITANQVLDYILTQVAVALEHHHHHH", "soluble on expression in E. coli": "soluble"}, {"sequence": "MAIELHGAISPQDDGSFDSKTLGTICWGDHNNVYMVIGNQTLEGKISKIDRPLLVIQKSDKNHQENGEKNATVNAVIRKKLVFKTRPRPLVLSTVV", "soluble on expression in E. coli": "soluble"}, {"sequence": "MAIFARETMDLIATASFPSIKKLSSGFWLDLFESTLTSGNELVLLPPTRYSYWSIMAVANPTPLKAPRRLDLVTKSLLAAPLLFHLVCQSNNPVREDVLDCWVWPFFCSGNTALMKSPKFWALLGVGSKVVLPWLCPLLGSRNAGKA", "soluble on expression in E. coli": "soluble"}, {"sequence": "MAIKSPPTLIPLSHLSGEELQAHLRFNRVTDEKGRYLPFDELQYRIKKGENVDVAWTLTRLARNAAIQRINYCNEAGEQAGFNITPVIAEACELVDKRATALALKDQTERLRGAGAELSQLRLEEPITSSQLEGANTTTLVARKMLETGRSPRTEDEHMIAGNARLMAEIPHLLAEPLTPALIRQLHAIGMGGINDAKYRPGEFRETDDVVIADYDGNIVHQPPAAALLPERLEKVCQWLNSHEGYIHPLVRACILHFMLAHEHPFRDGNGRTSRALFYWYMLKSGYDVFKYISISRLLHAAPVKYAASYQYTESDGMDLTYFLEYQAGVIKRALQNWQQHIDEITQRSAKLDSVLFSSGVLKRLNPRQVTLLNVMLANPGKEYTVAEISASLGVSDNTVRADLRTIVKEGFAQEKKINDQQAVYFAHYPL", "soluble on expression in E. coli": "not soluble"}]}]}
